Results reported in the supplement of paper PMC7125110.
± gives the standard error. Variants at the floor of the assay were thinned out.

B1: glmS ribozyme (parent)
chain: AUAAAAGCGCCAGAACUACAGAAAUGUAGUUGACGAGGAGGAGGUUUAUCGAAUUUUCGGCGGAUGCCUCCAAA

What was measured:
Details in all cases: with glucosamine-6-phosphate
glucosamine-6-phosphate [1] = variants of: B1; assay: self-cleavage kobs at 40 uM GlcN6P; higher = faster cleavage; RNA array
Procedure, shortened: (§1)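 Sequenced MiSeq chips were the platform: E. coli RNA polymerase transcribed barcoded ribozyme variants on them in situ, and a hybridised Cy3 probe tracked these at 37 °C. After glucosamine-6-phosphate (40 μM to 10 mM) in HEPES/KCl/Mg(OAc)2 buffer was flowed in, tiles were imaged over ~14 h. Signals normalised to baseline and to non-cleaving reference variants were reduced to per-tile medians and fit to one- or two-exponential decays to obtain kobs. kcat and KM were derived through weighted Michaelis–Menten fits across concentrations.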

glucosamine-6-phosphate [2] = variants of: B1; assay: self-cleavage kobs at 160 uM GlcN6P; higher = faster cleavage; RNA array
Procedure, shortened: as §1

glucosamine-6-phosphate [3] = variants of: B1; assay: self-cleavage kobs at 2500 uM GlcN6P; higher = faster cleavage; RNA array
Procedure, shortened: as §1

glucosamine-6-phosphate [4] = variants of: B1; assay: self-cleavage kobs at 10000 uM GlcN6P; higher = faster cleavage; RNA array
Procedure, shortened: as §1

glucosamine-6-phosphate [5] = variants of: B1; assay: self-cleavage kobs at 640 uM GlcN6P; higher = faster cleavage; RNA array
Procedure, shortened: as §1

Variant | self-cleavage kobs at 40 uM GlcN6P (glucosamine-6-phosphate [1]) [s⁻¹] | self-cleavage kobs at 160 uM GlcN6P (glucosamine-6-phosphate [2]) [s⁻¹] | self-cleavage kobs at 2500 uM GlcN6P (glucosamine-6-phosphate [3]) [s⁻¹] | self-cleavage kobs at 10000 uM GlcN6P (glucosamine-6-phosphate [4]) [s⁻¹] | self-cleavage kobs at 640 uM GlcN6P (glucosamine-6-phosphate [5]) [s⁻¹]
U54C U55C U65A | 3.24e-05 ± 1.6e-05 |  |  |  | 
G60A U65C | < 1e-05 | < 1e-05 | < 1e-05 | < 1e-05 | 
U54G U69C | 0.00112 ± 0.00028 | 0.000153 ± 6e-05 | 0.00133 ± 0.00041 | 0.00526 ± 0.0011 | 0.000689 ± 0.00017
A73U | 0.00108 ± 0.00026 |  | 0.00477 ± 0.0019 | 0.0245 ± 0.0093 | 
U54A U55G | 0.00074 ± 7.7e-05 | 0.00127 ± 0.00022 | 0.0121 ± 0.0021 | 0.0328 ± 0.011 | 0.00651 ± 0.0008
U54A U55C | 0.00104 ± 0.00016 | 0.00215 ± 0.00046 | 0.0235 ± 0.0076 | 0.0628 ± 0.022 | 0.00479 ± 0.001
A6G G41A A42U A64U |  | < 1e-05 | < 1e-05 |  | 
C61U U65C | < 1e-05 |  | < 1e-05 | < 1e-05 | < 1e-05
A6U A14C |  | < 1e-05 |  | 4.13e-05 ± 7.6e-06 | 
G59U G62U C71U | < 1e-05 |  |  |  | 
U65A U69C | 5.26e-05 ± 1.5e-05 |  | 0.00117 ± 0.00044 | 0.000843 ± 0.00023 | 0.00019 ± 8.3e-05
G59C C70U | < 1e-05 |  |  |  | < 1e-05
G59A A64G U69G | < 1e-05 |  |  |  | 
A53U U56A C70U | 0.000179 ± 3.4e-05 |  |  | 0.00382 ± 0.0011 | 
A6U G35C |  | < 1e-05 |  | < 1e-05 | < 1e-05
G63U A64G | < 1e-05 | < 1e-05 |  | < 1e-05 | < 1e-05
A64C G66C | < 1e-05 | < 1e-05 |  |  | < 1e-05
G7A C8U C16A G43C G44U G63U C68U |  | < 1e-05 | < 1e-05 | < 1e-05 | < 1e-05
G60C A64C | < 1e-05 | < 1e-05 | < 1e-05 | < 1e-05 | < 1e-05
U55A G60A C67U | < 1e-05 |  |  |  | 
A6U A12C A36C G38C C71U |  | < 1e-05 | < 1e-05 |  | < 1e-05

Variant | self-cleavage kobs at 40 uM GlcN6P (glucosamine-6-phosphate [1]) [s⁻¹] | self-cleavage kobs at 160 uM GlcN6P (glucosamine-6-phosphate [2]) [s⁻¹] | self-cleavage kobs at 2500 uM GlcN6P (glucosamine-6-phosphate [3]) [s⁻¹] | self-cleavage kobs at 10000 uM GlcN6P (glucosamine-6-phosphate [4]) [s⁻¹] | self-cleavage kobs at 640 uM GlcN6P (glucosamine-6-phosphate [5]) [s⁻¹]
A53U G60C | < 1e-05 |  | < 1e-05 | < 1e-05 | 
G60U G62A | < 1e-05 | < 1e-05 |  |  | < 1e-05
C61U C67G C68G | 4.73e-05 ± 1.6e-05 |  |  |  | 
G60A G62C | < 1e-05 | < 1e-05 | < 1e-05 |  | 
U55G G60U | < 1e-05 | < 1e-05 | < 1e-05 |  | < 1e-05
G59U G63U | < 1e-05 | < 1e-05 | < 1e-05 |  | < 1e-05
A6G G7U C34G |  | < 1e-05 | < 1e-05 |  | < 1e-05
A64U C71A | < 1e-05 |  |  | 3.22e-05 ± 1.4e-05 | 
G60U U65G | < 1e-05 |  | < 1e-05 | < 1e-05 | < 1e-05
U2C U56C |  | 0.000197 ± 5.4e-05 | 0.00287 ± 0.00077 |  | 0.000865 ± 0.00022
U57G G60U | < 1e-05 | < 1e-05 | < 1e-05 |  | < 1e-05
U56G C67U | 0.000109 ± 1.2e-05 | 0.000258 ± 4.6e-05 | 0.00142 ± 0.00022 | 0.00538 ± 0.00085 | 0.00135 ± 0.00015
C61A A64C C71A | < 1e-05 |  |  | < 1e-05 | 
G62U G63U | < 1e-05 | < 1e-05 | < 1e-05 | < 1e-05 | 
G60C G62U | < 1e-05 | < 1e-05 | < 1e-05 | < 1e-05 | 
A6C C10A G35A C58G C70G |  | 4.89e-05 ± 2.3e-05 | 0.000134 ± 4.9e-05 |  | 0.000553 ± 0.00014
U54C G60A | < 1e-05 |  |  |  | 
U55C C68G | < 1e-05 |  |  | < 1e-05 | 
U56G U69C | 0.000126 ± 1.8e-05 | 0.000192 ± 6.9e-05 | 0.00118 ± 0.00041 | 0.00475 ± 0.0011 | 0.000627 ± 0.00011
G60U C71U | < 1e-05 | < 1e-05 |  | < 1e-05 | < 1e-05
U55G C67U | 0.000342 ± 3.5e-05 | 0.000573 ± 9.2e-05 | 0.00136 ± 0.00026 | 0.0121 ± 0.0017 | 0.000864 ± 0.00017
